Molecular target: T1, pBIND-IκBα (GAL4 DNA-binding domain fusion of IκBα) (UniProt P25963 1-317)
T1 construct: source: HEK293T, transfected, mammalian two-hybrid fusion
T1 sequence (looked up): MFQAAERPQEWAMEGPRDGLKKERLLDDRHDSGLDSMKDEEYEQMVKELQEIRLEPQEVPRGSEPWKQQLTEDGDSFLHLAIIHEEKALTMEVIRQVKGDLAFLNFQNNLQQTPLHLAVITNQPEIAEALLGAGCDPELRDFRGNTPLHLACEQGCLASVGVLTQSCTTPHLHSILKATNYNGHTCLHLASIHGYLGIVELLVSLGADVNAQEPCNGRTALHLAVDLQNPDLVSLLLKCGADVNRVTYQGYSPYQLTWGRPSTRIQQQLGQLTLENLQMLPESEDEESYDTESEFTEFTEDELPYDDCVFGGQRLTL
Experiment: two-hybrid; mammalian two-hybrid (CheckMate, Promega) in HEK293T: pBIND-IκBα (GAL4), pACT-RSK3 (VP16), pG5luc; firefly luciferase normalised to renilla, 24 h after transfection; also with RSK3I added 4 h after transfection
Conditions: partners not purified

B1: pACT-RSK3 (VP16 activation domain fusion of RSK3) (natural protein, UniProt Q15349 1-733, looked up)
chain: MDLSMKKFAVRRFFSVYLRRKSRSKSSSLSRLEEEGVVKEIDISHHVKEGFEKADPSQFELLKVLGQGSYGKVFLVRKVKGSDAGQLYAMKVLKKATLKVRDRVRSKMERDILAEVNHPFIVKLHYAFQTEGKLYLILDFLRGGDLFTRLSKEVMFTEEDVKFYLAELALALDHLHSLGIIYRDLKPENILLDEEGHIKITDFGLSKEAIDHDKRAYSFCGTIEYMAPEVVNRRGHTQSADWWSFGVLMFEMLTGSLPFQGKDRKETMALILKAKLGMPQFLSGEAQSLLRALFKRNPCNRLGAGIDGVEEIKRHPFFVTIDWNTLYRKEIKPPFKPAVGRPEDTFHFDPEFTARTPTDSPGVPPSANAHHLFRGFSFVASSLIQEPSQQDLHKVPVHPIVQQLHGNNIHFTDGYEIKEDIGVGSYSVCKRCVHKATDTEYAVKIIDKSKRDPSEEIEILLRYGQHPNIITLKDVYDDGKFVYLVMELMRGGELLDRILRQRYFSEREASDVLCTITKTMDYLHSQGVVHRDLKPSNILYRDESGSPESIRVCDFGFAKQLRAGNGLLMTPCYTANFVAPEVLKRQGYDAACDIWSLGILLYTMLAGFTPFANGPDDTPEEILARIGSGKYALSGGNWDSISDAAKDVVSKMLHVDPHQRLTAMQVLKHPWVVNREYLSPNQLSRQDVHLVKGAMAATYFALNRTPQAPRLEPVLSSNLAQRRGMKRLTSTRL
notes: RSK3 (RPS6KA2) cloned into pACT; source: HEK293T, transfected, mammalian two-hybrid fusion
Question: Which “fold luciferase activity over the pBind-IκBα vector-only control” value does the source give for B1 here?
Answer: Its value is ~3 fold.

— publication PMC8231827, “A Novel Protein–Protein Interaction between RSK3 and IκBα and a New Binding Inhibitor That Suppresses Breast Cancer Tumorigenesis” (Cancers, 2021)
